Assay in all cases: cAMP activity assay (pCRE β-galactosidase reporter), transfected HEK293T cells
Type in all cases: cell-based

Experiment [1] has as its target T1, RXFP1 A55L (Homo sapiens, UniProt Q9HBX9, A77L).
T1 construct: cells expressing full-length RXFP1 and mutants; expressed in transfected cells; host or cells: HEK293T
T1 sequence (Q9HBX9 23-757 A77L limits assumed): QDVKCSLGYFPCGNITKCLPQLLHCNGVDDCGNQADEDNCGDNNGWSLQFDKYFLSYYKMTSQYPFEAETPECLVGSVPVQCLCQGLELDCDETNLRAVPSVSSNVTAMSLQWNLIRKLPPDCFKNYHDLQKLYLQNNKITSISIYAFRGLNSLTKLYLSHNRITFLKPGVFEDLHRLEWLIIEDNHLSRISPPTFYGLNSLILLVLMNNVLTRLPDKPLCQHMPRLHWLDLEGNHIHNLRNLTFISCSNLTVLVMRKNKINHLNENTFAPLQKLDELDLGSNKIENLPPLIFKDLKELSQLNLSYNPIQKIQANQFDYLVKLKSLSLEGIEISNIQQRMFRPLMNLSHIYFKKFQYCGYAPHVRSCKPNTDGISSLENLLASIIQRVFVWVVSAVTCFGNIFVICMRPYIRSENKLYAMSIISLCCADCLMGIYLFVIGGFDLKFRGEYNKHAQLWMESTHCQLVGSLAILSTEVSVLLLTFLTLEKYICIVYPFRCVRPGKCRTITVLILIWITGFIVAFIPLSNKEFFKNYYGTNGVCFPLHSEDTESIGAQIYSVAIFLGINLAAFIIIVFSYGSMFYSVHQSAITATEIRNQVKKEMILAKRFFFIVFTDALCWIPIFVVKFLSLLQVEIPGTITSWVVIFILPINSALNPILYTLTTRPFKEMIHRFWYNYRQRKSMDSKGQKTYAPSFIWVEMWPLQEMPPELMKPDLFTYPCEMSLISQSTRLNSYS
The settings on record: construct A55L, ±s.e.m. Here is the method:
(§1) Media was aspirated and plates stored frozen at −80 °C overnight. […] H2 relaxin dilutions were prepared in minimal media containing 1% DMSO. Positive and negative control stimulations were achieved by incubation with 5 μM Forskolin and minimal media/1% DMSO, respectively. Plates were developed by 10 min of incubation in 25 μl of lysis buffer 1 (100 mM Na2HPO4, pH 8.0, 0.2 mM MgSO4 0.01 mM MnCl2); a further 10 min of incubation in 100 μl of buffer 2 (100 mM Na2HPO4, pH 8.0, 2 mM MgSO4, 0.1 mM MnCl2, 0.5% Triton X-100, 40 mM β-mercaptoethanol); then to each well 25 μl of the β-galactosidase substrate, chlorophenol red-β-D-galactopyranoside (Roche) was added. All incubation steps were conducted with orbital shaking. Color-change was monitored and readings were taken on a Benchmark Plus Microplate Reader (Bio-Rad) at 570 nm. A minimum of three separate experiments were performed, each of them in triplicate, and data were pooled and presented as percentages of the maximum response induced by 5 μM Forskolin±s.e.m.

Experiment [2] concerns the target T2, RXFP1 D42A (Homo sapiens, UniProt Q9HBX9, D64A).
T2 construct: transiently transfected human embryonic kidney (HEK) 293T cells expressing full-length RXFP1 and mutants; expressed in transfected cells; host or cells: HEK293T
T2 sequence (Q9HBX9 23-757 D64A limits assumed): T1 sequence (Q9HBX9 23-757 A77L limits assumed) with D42A, L55A
To be noted: construct D42A. How it is done: as §1

In experiment [3] the target is T3, RXFP1 G45W46-AA (Homo sapiens, UniProt Q9HBX9, G67A/W68A).
T3 construct: transiently transfected human embryonic kidney (HEK) 293T cells expressing full-length RXFP1 and mutants; expressed in transfected cells; host or cells: HEK293T
T3 sequence (Q9HBX9 23-757 G67A/W68A limits assumed): T1 sequence (Q9HBX9 23-757 A77L limits assumed) with G45A, W46A, L55A
Here is the method: as §1

Where a chain is given by its changes, count along the chain named.

The record followed here is PMC4837482, “The complex binding mode of the peptide hormone H2 relaxin to its receptor RXFP1” (Nature Communications, 2016).

For the substance “H2 relaxin: two-chain 6-kDa peptide hormone structurally related to insulin; recombinant human gene-2 H2 relaxin provided by Corthera”, the “H2 relaxin pEC50” value in experiment [1] (cAMP reporter) was 10.75±0.17 (5); in experiment [2] it was <6 (4); in experiment [3] (construct G45W46-AA, cAMP reporter) it was <6 (3). In experiment [1] (percentage of maximum response to 5 μM Forskolin), the “H2 relaxin Emax” value is given as 123.59±8.51 (5) %. In addition, the “H2 relaxin-stimulated cAMP activity” value in experiment [3] (G45A/W46A RXFP1) was “virtually unable to signal”.
